This is an account of results in patent US20220372147A1 (UNIVERSIT T STUTTGART, published 2022).

Like-named read-outs stand apart in the source and are kept apart here.

The target of assay [1] is T1, His-tagged HER3 protein, extracellular domain (ECD) of HER3 (aa 21-643) (UniProt P21860 21-643).
T1 construct: range 21-643; also called HER3-His; not shown: His-tag
In words: ELISA, immobilized HER3-His, anti-human Fc-HRP detection. (In general: In an ELISA, binding on a coated surface is turned into a signal by an enzyme label.)

The target in assay [2] is T2, FcεRI Fc fusion protein comprising the extracellular region of FcεRI (human, UniProt P12319 26-205).
T2 construct: extracellular domain; also called FcεRT; FccRT; not shown: Fc part
T2 sequence (looked up): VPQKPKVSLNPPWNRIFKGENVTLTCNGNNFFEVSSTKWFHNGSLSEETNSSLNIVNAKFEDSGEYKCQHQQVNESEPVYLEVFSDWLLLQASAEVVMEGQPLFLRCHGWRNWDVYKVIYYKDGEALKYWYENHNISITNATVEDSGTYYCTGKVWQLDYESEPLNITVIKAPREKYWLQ
In words: ELISA, immobilized FcεRI-Fc, anti-human Fab detection.

The next assay addresses T3, EGFR-Fc (UniProt P00533 25-645).
T3 construct: also called immobilized EGFR-Fc antigen; not shown: Fc part
In words: bifunctional sandwich ELISA: immobilized EGFR-Fc, titrated eIg-Fab, then HER3-His as second antigen detected with anti-His-HRP.

In a further assay the target is T4, EGFR-moFc (UniProt P00533 25-645).
T4 construct: also called EGFR-moFc protein (second soluble antigen); not shown: murine Fc part
In words: bifunctional sandwich ELISA: immobilized HER3-His, EGFR-moFc detected with anti-mouse Fc-HRP.

Assay [3] addresses T1, His-tagged HER3 protein, extracellular …. In words: ELISA, immobilized HER3-His, anti-human Fab-HRP detection.
For assay [4] the target is unchanged. In words: bifunctional sandwich ELISA: immobilized HER3-His, titrated Fab-eFab, then EGFR-moFc as second antigen detected with anti-mouse Fc-HRP.
The target of assay [5] is EGFR (immobilized control antigen of Example 11) (UniProt P00533 25-645, limits assumed). In words: ELISA at 50 nM, immobilized EGFR, anti-human Fab detection.
Assay [6] deals with T5, HER3 on HER3-expressing cancer cells (LIM1215, BT474) (UniProt P21860 20-1342, limits assumed).
T5 construct: whole, on cells; also called HER3-expressing LIM1215 cells; HER3-expressing BT474 cells
In words: flow cytometry on HER3-expressing LIM1215 cells, PE anti-human Fc.

For assay [7], the target named is T5, HER3 on HER3-expressing cancer cells …. In words: flow cytometry on HER3-expressing BT474 cells, PE anti-human Fc.
Assay [8] has the same target. In words: flow cytometry on HER3-expressing LIM1215 cells, PE anti-human Fc. This is another data set of the same source. A general note: Flow cytometry measures light scatter and fluorescence of single cells or particles in a stream.
Assay [9] deals with T6, CD3 on CD3-expressing Jurkat cells (human, UniProt P07766 23-207).
T6 construct: whole, on cells
T6 sequence (P07766 23-207): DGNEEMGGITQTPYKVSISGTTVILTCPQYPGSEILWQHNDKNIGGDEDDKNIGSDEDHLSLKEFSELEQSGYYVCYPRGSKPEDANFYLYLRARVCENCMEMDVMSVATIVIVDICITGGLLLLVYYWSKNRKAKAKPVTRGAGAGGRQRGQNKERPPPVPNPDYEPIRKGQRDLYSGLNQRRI
In words: flow cytometry on CD3-expressing Jurkat cells, PE anti-human Fc.

In assay [10] the target is T6, CD3 on CD3-expressing Jurkat cells. The description is as above. This is another data set of the same source.
In assay [11] the target is T5, HER3 on HER3-expressing cancer cells …. In words: cell-based or functional assay.
Assay [12] shares this target. In words: flow cytometry on HER3-expressing LIM1215 and BT474 cells.
The target in assay [13] is T1, His-tagged HER3 protein, extracellular …. In words: ELISA, immobilized HER3-His, anti-human Fc-HRP detection. The source holds these as a separate data set.

B1: tetravalent and bispecific eIg-Fab molecule targeting HER3 and EGFR (bispecific antibody)
light 1: QAGLTQPPAVSVAPGQTASITCGRDNIGSRSVHWYQQKPGQAPVLVVYDDSDRPAGIPERFSGSNYENTATLTISRVEAGDEADYYCQVWGITSDHVVFGGGTKLTVLGTDFTPPTVKILQSSSDGGGHFPPTIQLLCLVSGYTPGTIQITWLEDGQVMDVDLSTASTTQEGELASTQSELTLSQKHWLSDRTYTCQVTYQGHTFEDSTKKCADSN
light 2: DIQLTQSPSFLSASVGDRVTITCRASQSIGTNIHWYQQKPGKAPKLLIKYASESISGVPSRFSGSGSGTEFTLTISSLQPEDFATYYCQQNNNWPTTFGAGTKLEIKRTVAAPSVFIFPPSDEQLKSGTASVVCLLNNFYPREAKVQWKVDNALQSGNSQESVTEQDSKDSTYSLSSTLTLSKADYEKHKVYACEVTHQGLSSPVTKSFNRGEC
heavy: not shown
notes: Homodimerizing Fc; also called eIg-Fab EGFRxHER3
Regarding B1, the EC50 (as a rule, the concentration needed to bring the measured effect to its halfway point) in assay [1] turned out to be 3.3 nM; with EGFR-Fc, 0.23 nM. The binding result in assay [2] is on record as “no binding (tested: 50 nM)”.

B2: bivalent and bispecific Fab-eFab molecule targeting HER3 and EGFR (bispecific antibody)
light 1: QAGLTQPPAVSVAPGQTASITCGRDNIGSRSVHWYQQKPGQAPVLVVYDDSDRPAGIPERFSGSNYENTATLTISRVEAGDEADYYCQVWGITSDHVVFGGGTKLTVLGTDFTPPTVKILQSSSDGGGHFPPTIQLLCLVSGYTPGTIQITWLEDGQVMDVDLSTASTTQEGELASTQSELTLSQKHWLSDRTYTCQVTYQGHTFEDSTKKCADSN
light 2: DIQLTQSPSFLSASVGDRVTITCRASQSIGTNIHWYQQKPGKAPKLLIKYASESISGVPSRFSGSGSGTEFTLTISSLQPEDFATYYCQQNNNWPTTFGAGTKLEIKRTVAAPSVFIFPPSDEQLKSGTASVVCLLNNFYPREAKVQWKVDNALQSGNSQESVTEQDSKDSTYSLSSTLTLSKADYEKHKVYACEVTHQGLSSPVTKSFNRGEC
heavy: EVQLVESGGGLVQPGGSLRLSCAASGFSLTNYGVHWVRQAPGKGLEWLGVIWSGGNTDYNTPFTSRFTISRDNSKNTLYLQMNSLRAEDTAVYYCARALTYYDYEFAYWGQGTTVTVSSASTKGPSVFPLAPSSKSTSGGTAALGCLVKDYFPEPVTVSWNSGALTSGVHTFPAVLQSSGLYSLSSVVTVPSSSLGTQTYICNVNHKPSNTKVDKKVEPKSCGGSGGGGSGGQVQLQQSGPGLVKPSQTLSLTCAISGDSVSSNRAAWNWIRQSPSRGLEWLGRTYYRSKWYNDYAQSLKSRITINPDTPKNQFSLQLNSVTPEDTAVYYCARDGQLGLDALDIWGQGTMVTVSSDFTPPTVKILQSSCDGGGHFPPTIQLLCLVSGYTPGTINITWLEDGQVMDVDLSTASTTQEGELASTQSELTLSQKHWLSDRTYTCQVTYQGHTFEDSTKKSADSNAAAHHHHHH
notes: No Fc region; one site for EGFR and one for HER3; C-terminal His-tag on the heavy chain; also called Fab-eFab EGFRxHER3
On to B2, for which the binding result was “binds” with EGFR-moFc, “binds” in [5] and “no binding (tested: 50 nM)” in assay [2]. Besides, the EC50 is 3.9 nM in [3] and 1.4 nM in [4].

B3: bispecific and bivalent anti-CD3 x anti-HER3 eIgG (bispecific antibody)
light 1: QAGLTQPPAVSVAPGQTASITCGRDNIGSRSVHWYQQKPGQAPVLVVYDDSDRPAGIPERFSGSNYENTATLTISRVEAGDEADYYCQVWGITSDHVVFGGGTKLTVLGQPKAAPSVTLFPPSSEELQANKATLVCLISDFYPGAVTVAWKADSSPVKAGVETTTPSKQSNNKYAASSYLSLTPEQWKSHRSYSCQVTHEGSTVEKTVAPTECS
heavy 1: not shown
heavy 2: not shown
light 2: not shown
notes: One site for HER3 (3-43), one for CD3 (huU3, humanized UCHT1); also called eIg1; eIgl
For B3, the concentration for a half-maximal effect (EC50) in assay [6] stood at 0.4 nM; in [7] it was 4.8 nM; in assay [8] it was 4 nM; in [9] it was 11.9 nM; in assay [10], 5.1 nM; in assay [13], 2.1 nM. Further, the “EC50 value in cell killing (PBMC-mediated cytotoxicity on BT-474 cells, crystal violet)” value in assay [11] was determined as 3.8 nM. In addition, in [11], the “EC50 value in cell killing (PBMC-mediated cytotoxicity on LIM1215 cells, crystal violet)” value was 5.8 nM. The binding result in [2] was “no binding (tested: 50 nM)”. The “factor weaker binding than the bispecific, trivalent eIg-Fab molecules” value in assay [12] is at most 50 fold.
